Assay results taken from paper PMC3333781, “Systematic mapping of two component response regulators to gene targets in a model sulfate reducing bacterium”.

How the values were obtained:
Assay in all cases: EMSA; 10 mM Tris-HCl pH 7.5, 1 mM DTT, 50 mM KCl, 5 mM MgCl2, 25% glycerol, 1 ug/ml poly dI-dC, 50-100 fmol biotinylated DNA, 25-30 C, 20 min
Conditions in all cases: protein: recombinant; tags: C-terminal V5-6xHis; chain copies: 2; label: 5'-biotin top strand
[1] = biological target: T1, DVU3381 response regulator (Desulfovibrio vulgaris Hildenborough, UniProt Q725P3 1-459)
T1 sequence: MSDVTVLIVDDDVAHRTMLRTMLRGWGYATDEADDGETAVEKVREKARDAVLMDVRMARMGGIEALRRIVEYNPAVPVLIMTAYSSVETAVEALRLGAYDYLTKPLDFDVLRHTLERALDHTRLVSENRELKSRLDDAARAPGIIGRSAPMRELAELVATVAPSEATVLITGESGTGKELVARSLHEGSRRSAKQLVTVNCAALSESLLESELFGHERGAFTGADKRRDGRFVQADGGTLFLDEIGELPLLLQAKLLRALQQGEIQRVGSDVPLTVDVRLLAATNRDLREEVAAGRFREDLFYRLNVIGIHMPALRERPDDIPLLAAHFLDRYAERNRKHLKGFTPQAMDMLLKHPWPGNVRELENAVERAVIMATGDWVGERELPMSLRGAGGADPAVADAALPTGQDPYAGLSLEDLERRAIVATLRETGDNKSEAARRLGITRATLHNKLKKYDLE

[2] = biological target: T2, DVU0679 response regulator (Desulfovibrio vulgaris Hildenborough, UniProt Q72E99 1-488)
T2 sequence: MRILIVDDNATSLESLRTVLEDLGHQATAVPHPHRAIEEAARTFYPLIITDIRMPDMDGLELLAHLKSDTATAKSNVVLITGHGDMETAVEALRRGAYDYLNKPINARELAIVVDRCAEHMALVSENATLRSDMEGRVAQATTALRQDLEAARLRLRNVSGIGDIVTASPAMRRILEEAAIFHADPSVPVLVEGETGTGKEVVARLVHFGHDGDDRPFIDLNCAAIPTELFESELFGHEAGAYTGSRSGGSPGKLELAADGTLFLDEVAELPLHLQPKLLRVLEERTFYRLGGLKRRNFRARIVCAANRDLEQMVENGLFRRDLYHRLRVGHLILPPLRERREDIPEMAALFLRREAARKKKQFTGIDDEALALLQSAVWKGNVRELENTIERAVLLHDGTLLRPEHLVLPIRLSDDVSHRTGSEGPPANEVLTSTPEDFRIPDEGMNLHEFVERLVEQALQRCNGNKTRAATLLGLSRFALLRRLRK

[3] = biological target: T3, DVU1083 response regulator (PhoB) (Desulfovibrio vulgaris Hildenborough, UniProt Q72D47 1-229)
T3 sequence: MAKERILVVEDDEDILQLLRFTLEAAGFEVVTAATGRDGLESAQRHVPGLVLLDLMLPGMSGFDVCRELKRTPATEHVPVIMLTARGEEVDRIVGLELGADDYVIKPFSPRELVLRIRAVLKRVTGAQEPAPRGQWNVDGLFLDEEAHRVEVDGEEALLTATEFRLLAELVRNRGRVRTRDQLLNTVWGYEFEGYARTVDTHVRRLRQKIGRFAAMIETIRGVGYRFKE

[4] = biological target: T4, DVU2588 response regulator (Desulfovibrio vulgaris Hildenborough, UniProt Q728L5 1-226)
T4 sequence: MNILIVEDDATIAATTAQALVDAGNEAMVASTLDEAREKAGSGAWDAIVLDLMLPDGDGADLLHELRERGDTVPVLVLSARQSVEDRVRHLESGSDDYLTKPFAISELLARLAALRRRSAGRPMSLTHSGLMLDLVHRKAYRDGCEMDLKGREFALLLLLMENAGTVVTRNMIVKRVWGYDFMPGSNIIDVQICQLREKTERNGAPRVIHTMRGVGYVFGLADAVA

[5] = biological target: T5, DVU0539 response regulator (Desulfovibrio vulgaris Hildenborough, UniProt Q72EN8 1-467)
T5 sequence: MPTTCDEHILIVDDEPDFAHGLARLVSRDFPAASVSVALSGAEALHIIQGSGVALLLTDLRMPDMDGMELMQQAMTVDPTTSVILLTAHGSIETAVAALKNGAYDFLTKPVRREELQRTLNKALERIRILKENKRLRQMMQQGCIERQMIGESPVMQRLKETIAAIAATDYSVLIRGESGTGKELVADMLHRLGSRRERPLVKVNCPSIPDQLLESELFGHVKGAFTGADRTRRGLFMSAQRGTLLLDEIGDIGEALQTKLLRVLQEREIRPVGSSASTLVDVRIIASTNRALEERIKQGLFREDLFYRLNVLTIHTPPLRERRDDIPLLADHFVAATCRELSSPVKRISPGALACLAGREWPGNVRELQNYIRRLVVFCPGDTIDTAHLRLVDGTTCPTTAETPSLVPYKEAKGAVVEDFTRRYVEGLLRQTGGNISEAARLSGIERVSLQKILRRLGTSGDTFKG

[6] = biological target: T6, DVU0946 response regulator (Desulfovibrio vulgaris Hildenborough, UniProt Q72DI3 1-476)
T6 sequence: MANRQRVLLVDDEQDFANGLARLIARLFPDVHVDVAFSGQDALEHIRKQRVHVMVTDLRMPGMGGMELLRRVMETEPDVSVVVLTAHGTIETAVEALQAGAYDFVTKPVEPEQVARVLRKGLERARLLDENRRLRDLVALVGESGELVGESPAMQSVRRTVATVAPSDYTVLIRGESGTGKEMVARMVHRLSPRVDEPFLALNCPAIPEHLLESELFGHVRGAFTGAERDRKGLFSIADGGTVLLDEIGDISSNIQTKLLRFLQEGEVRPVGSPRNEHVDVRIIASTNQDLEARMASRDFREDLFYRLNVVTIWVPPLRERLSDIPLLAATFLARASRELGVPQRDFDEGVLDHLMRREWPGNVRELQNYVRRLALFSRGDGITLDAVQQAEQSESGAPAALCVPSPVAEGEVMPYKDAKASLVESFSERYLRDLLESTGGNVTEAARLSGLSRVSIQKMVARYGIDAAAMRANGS

[7] = biological target: T7, DVU3023 response regulator (Desulfovibrio vulgaris Hildenborough, UniProt Q726T3 1-474)
T7 sequence: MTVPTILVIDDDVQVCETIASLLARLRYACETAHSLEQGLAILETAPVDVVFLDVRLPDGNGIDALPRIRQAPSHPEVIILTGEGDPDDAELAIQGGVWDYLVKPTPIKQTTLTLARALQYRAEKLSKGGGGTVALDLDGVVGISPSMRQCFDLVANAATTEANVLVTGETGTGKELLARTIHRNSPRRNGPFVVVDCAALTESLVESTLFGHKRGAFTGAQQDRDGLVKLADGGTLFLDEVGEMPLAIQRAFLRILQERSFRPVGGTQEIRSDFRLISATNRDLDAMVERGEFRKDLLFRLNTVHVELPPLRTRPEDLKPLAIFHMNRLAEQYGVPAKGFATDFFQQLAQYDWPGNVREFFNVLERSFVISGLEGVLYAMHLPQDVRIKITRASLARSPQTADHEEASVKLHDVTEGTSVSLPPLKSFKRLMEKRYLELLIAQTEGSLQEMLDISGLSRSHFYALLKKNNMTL

[8] = biological target: T8, DVU2934 response regulator (Desulfovibrio vulgaris Hildenborough, UniProt Q727C1 1-472)
T8 sequence: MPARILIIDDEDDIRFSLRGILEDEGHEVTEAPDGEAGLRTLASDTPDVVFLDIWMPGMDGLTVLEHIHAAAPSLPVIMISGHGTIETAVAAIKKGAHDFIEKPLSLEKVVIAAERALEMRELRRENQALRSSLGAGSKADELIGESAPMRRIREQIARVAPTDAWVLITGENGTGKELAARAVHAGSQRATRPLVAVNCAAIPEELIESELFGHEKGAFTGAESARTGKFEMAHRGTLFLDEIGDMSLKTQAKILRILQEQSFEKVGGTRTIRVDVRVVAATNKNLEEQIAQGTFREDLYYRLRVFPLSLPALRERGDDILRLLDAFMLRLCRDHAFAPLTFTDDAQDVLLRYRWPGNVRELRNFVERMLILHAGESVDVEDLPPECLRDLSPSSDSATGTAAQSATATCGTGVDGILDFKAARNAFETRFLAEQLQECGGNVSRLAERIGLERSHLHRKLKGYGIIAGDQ

[9] = biological target: T9, DVU3305 response regulator (Desulfovibrio vulgaris Hildenborough, UniProt Q725X0 1-451)
T9 sequence: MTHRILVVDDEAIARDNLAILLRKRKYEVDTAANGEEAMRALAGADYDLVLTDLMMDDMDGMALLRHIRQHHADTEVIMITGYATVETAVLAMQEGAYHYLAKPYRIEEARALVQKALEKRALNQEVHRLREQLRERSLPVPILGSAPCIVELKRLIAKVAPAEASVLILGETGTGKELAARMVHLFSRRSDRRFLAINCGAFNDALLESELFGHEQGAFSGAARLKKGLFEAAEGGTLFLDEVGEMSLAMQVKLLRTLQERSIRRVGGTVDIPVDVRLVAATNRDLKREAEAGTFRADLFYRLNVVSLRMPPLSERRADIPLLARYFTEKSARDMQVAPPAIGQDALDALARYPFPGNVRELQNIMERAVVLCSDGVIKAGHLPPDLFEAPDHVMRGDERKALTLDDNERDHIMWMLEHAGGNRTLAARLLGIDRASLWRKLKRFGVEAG

B1: DVU3384 motif mut (dsDNA)
DNA 1: CACGAATGGAATGTATTTTTCTTGCACCCATACAC
DNA 2: GTGTATGGGTGCAAGAAAAATACATTCCATTCGTG
B1: no binding [1].

B2: DVU0677 motif mut (dsDNA)
DNA 1: AATCGCACGCGGAGAGTATTCGGATGTGCTTTTCCG
DNA 2: CGGAAAAGCACATCCGAATACTCTCCGCGTGCGATT
B2: no binding [2].

B3: DVU1083 motif mut (dsDNA)
DNA 1: GTTGTAAAATGACAAACGGTTCTAGACGCTCTTCCA
DNA 2: TGGAAGAGCGTCTAGAACCGTTTGTCATTTTACAAC
B3: no binding [3].

B4: DVU0943 DVU2588-motif mut (dsDNA)
DNA 1: CGTCCTGCACCTAATCATTCTTAAGTTAAAAGCTGT
DNA 2: ACAGCTTTTAACTTAAGAATGATTAGGTGCAGGACG
B4: no binding [4].

B5: DVU0943 second site mut (dsDNA)
DNA 1: AAAGGGCTCGACAACAGATGTTCCATGCAAA
DNA 2: TTTGCATGGAACATCTGTTGTCGAGCCCTTT
B5: no binding [5]; no binding [6].

B6: DVU3025 motif mut (dsDNA)
DNA 1: GCCACACGAACTGCGCTTTTCAATCAACGCTACCAC
DNA 2: GTGGTAGCGTTGATTGAAAAGCGCAGTTCGTGTGGC
B6: no binding [7].

B7: DVU2917 motif mut (dsDNA)
DNA 1: CTCGCCATGTGGACTGCAGAAGAGAGACTGTGCGTGG
DNA 2: CCACGCACAGTCTCTCTTCTGCAGTCCACATGGCGAG
B7: no binding [8].

B8: DVU3303 motif mut (dsDNA)
DNA 1: AAAGCCTCGTCATGGGATATCGTACACGAGGCCAC
DNA 2: GTGGCCTCGTGTACGATATCCCATGACGAGGCTTT
B8: no binding [9].
